Test results published in article PMC6689322 (Journal of structural biology, 2019).

B1: ArsR As(III)-responsive transcriptional repressor from Acidithiobacillus ferrooxidans (natural protein)
chain: MEPLQDPAQIVARLEALASPVRLEIFRLLVEQEPTGLVSGDIAEHLGQPHNGISFHLKNLQHAGLVTVQREGRYQRYRAAMPVVRALVAYLTENCCHGTRDCALSGETRSPSVQEGNQ

Tests used:
[1] = biological target: ArsR As(III)-responsive transcriptional repressor from Corynebacterium glutamicum (Corynebacterium glutamicum); experiment: crystal structure
[2] = biological target: the molecule itself; experiment: crystal structure

Row | Molecule | stoichiometry N [1] | stoichiometry N [2]
1 | ArsR As(III)-responsive transcriptional repressor from Corynebacterium glutamicum (natural protein) | 2 | –
2 | B1 | – | 2
